From article PMC9486875

Target: T1, GST-Mei2 RRM1-RRM2 (Schizosaccharomyces pombe, UniProt P08965 191-373)
T1 sequence: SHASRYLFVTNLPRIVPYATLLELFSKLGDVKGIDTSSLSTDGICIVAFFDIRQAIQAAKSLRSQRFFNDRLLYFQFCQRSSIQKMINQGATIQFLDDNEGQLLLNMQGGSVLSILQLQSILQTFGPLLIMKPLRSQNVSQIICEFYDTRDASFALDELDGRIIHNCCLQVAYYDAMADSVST
Experiment: EMSA

GUCAAUCUUCUGCCGUCUUG (ssRNA) [meiRNA 20mer]
binding result: no binding
